Assay [1] addresses human PD-L1 on CHO-K1 cells (human, UniProt Q9NZQ7 19-290). The experiment in a line: FACS binding. (In general: A flow cytometer gives signals particle by particle.)
The next assay has as its target His-tagged huPD-L1 (human, UniProt Q9NZQ7 19-238). Kind of assay: BLI. In general terms: Biolayer interferometry detects binding as a change in optical thickness at a sensor tip.
The target of a further assay is His tagged TGF-β1 (UniProt P01137 279-390). The experiment in a line: BLI.
Chain of His tagged TGF-β1 (P01137 279-390): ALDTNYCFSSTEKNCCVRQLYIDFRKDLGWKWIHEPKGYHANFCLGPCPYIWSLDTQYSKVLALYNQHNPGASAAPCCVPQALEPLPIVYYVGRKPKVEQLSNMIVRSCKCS
The target in a further assay is huTGF-β1 (human, UniProt P01137 279-390). Kind of assay: ELISA; simultaneous binding, detected with biotinylated hu PD-L1. (In general: An ELISA detects its analyte on a solid surface through an enzyme-linked reagent.)
Chain of huTGF-β1 (P01137 279-390): as above
In assay [2] the target is FITC labeled human PD-L1-Fc protein (human, UniProt Q9NZQ7 19-238, FITC labeled (sites not given)). Kind of assay: FACS blocking of PD-L1/PD-1.
Chain of FITC labeled human PD-L1-Fc protein (Q9NZQ7 19-238): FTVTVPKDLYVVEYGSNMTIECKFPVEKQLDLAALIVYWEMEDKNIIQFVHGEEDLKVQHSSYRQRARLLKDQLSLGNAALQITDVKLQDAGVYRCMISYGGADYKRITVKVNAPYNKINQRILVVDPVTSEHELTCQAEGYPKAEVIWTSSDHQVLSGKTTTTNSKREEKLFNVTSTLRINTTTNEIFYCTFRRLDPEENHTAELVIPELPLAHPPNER

What is called EC50 is the concentration at which the effect is half-maximal. Read a high EC50 as a less potent agent. In general, Kd refers to the constant that tells how readily two partners part at equilibrium. A lower Kd goes with a tighter complex. The IC50 is the concentration at which inhibition is half-maximal. High values mean a need for much substance, low ones inhibition by little substance.

Chain of human PD-L1 on CHO-K1 cells (Q9NZQ7 19-290): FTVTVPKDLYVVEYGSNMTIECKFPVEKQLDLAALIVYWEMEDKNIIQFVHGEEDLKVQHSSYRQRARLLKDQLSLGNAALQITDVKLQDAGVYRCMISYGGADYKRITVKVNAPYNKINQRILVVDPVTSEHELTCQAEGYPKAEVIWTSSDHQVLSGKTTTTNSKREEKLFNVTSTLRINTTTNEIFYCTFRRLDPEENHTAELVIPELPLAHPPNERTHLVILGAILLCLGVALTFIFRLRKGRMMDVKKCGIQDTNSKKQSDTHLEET
Chain of His-tagged huPD-L1 (Q9NZQ7 19-238): as the sequence (Q9NZQ7 19-238) above

B1: Bi-PLB-1.2 (antibody)
chain 1: not shown
chain 2: DIQMTQSPSFLSASVGDRVTITCKASQNVGTNVAWYQQKPGKAPKALIYSASYRYSGVPSRFSGSGSGTEFTLTISSLQPEDFATYYCQQYYSYPYTFGQGTKLEIKRTVAAPSVFIFPPSDEQLKSGTASVVCLLNNFYPREAKVQWKVDNALQSGNSQESVTEQDSKDSTYSLSSTLTLSKADYEKHKVYACEVTHQGLSSPVTKSFNRGEC
With B1, the EC50 in assay [1] came out at 1.6 nM; with huTGF-β1, 10.3 nM. Besides, the values for the Kd in the assay with His-tagged huPD-L1 and with His tagged TGF-β1 were 0.83 nM and 0.28 nM, respectively. Also, the IC50 in assay [2] is 1.23 nM.
